# Measured values published in US7745417B2, “Nucleosides or nucleotides having novel unnatural bases and use thereof” (RIKEN, priority 2002, dated 2010).
# Read-outs that look alike come from different tables or passages of the source.
# B1: RNA 9A: anti-(Raf-1) RNA aptamer binding to Raf-1 RBD, 100 bases, SEQ ID NO: 1 (nucleic acid)
# chain: GGGAGUGGAGGAAUUCAUCGAGGCAUAUGUCGACUCCGUCUUCCUUCAAACCAGUUAUAAAUUGGUUUUAGCAUAUGCCUUAGCGACAGCAAGCUUCUGC
# modifications: chemistry not given here
# Columns and labels:
# [1] = biological target: T1, Raf-1 GST-RBD (Homo sapiens, UniProt P04049); assay: Gel shift assay of binding to GST-RBD; details: 5% non-denaturing polyacrylamide gel
# T1 construct: human Raf-1 RBD (amino acid residues 51-131); GST (N); made in house; host or cells: E. coli
# Description: The product (XL) obtained by crosslinking reaction an equal concentration (0.1 μM) mixture of 9A(5Iy87) and Raf-1 RBD was purified from a gel and analyzed for binding between XL and GSTRBD by gel shift assay. As a control of RNA 9A dimer, RNA 9A molecules were also linked in tandem to newly prepare RNA 9A×2 (200 nucleotides in total length), followed by gel shift assay. RNA 9A×2 is an RNA molecule of 200 nucleotides in total length that has two essential regions of RNA 9A (residues 1-80) in its molecule. It was prepared by transcription reaction using T7 RNA polymerase (Epicentre) and subcloned into vector pCR®II-TOPO (Invitrogen).
# Each RNA whose 5′-terminus was ^32P-labeled (0.8 pmol) was warmed in 20 μl Buffer A at 75° C. for 3 minutes and then allowed to stand at room temperature for 10 minutes or longer to form the secondary structure of RNA. […] Each aliquot was supplemented with 5 μl Raf-1 GST-RBD solution (containing, in addition to RBD, 160 μg/ml BSA, 1 mM DTT and 10% glycerol in Buffer A), incubated at 37° C. for 30 minutes, and then analyzed by electrophoresis on a 5% non-denaturing polyacrylamide gel (acrylamide:bisacrylamide=39:1). […]
# [2] = biological target: T2, Raf-1 RBD (Homo sapiens, UniProt P04049); assay: Binding efficiency to Raf-1 RBD by filter binding method; details: Raf-1 RBD/RNA=300:5 nM; triplicate average, standard deviation in parentheses
# T2 construct: human Raf-1 RBD (amino acid residues 51-131); GST (N); made in house; host or cells: E. coli
# Description: In this example, to examine changes in binding activity to Raf-1 RBD, each RNA site-selectively introduced with 5Iy was measured for binding efficiency by a filter binding method (Table 2). […] This means that the inventive method for site-selective introduction of 5Iy is advantageous.
# (§1) The binding efficiency to Raf-1 RBD was measured for each RNA by a filter binding method (Raf-1 RBD/RNA=300:5 nM). Standard deviations are in parentheses. ^a RNA 9A transcribed from s-free template DNA in the presence of 0.4 mM 5IUTP. ^b RNA 9A transcribed from s-free template DNA in the presence of 0.25 mM 5IyTP.
# Each RNA whose 5′-terminus was ^32P -labeled was warmed in Buffer A at 75° C. for 3 minutes and then allowed to stand at room temperature for 10 minutes or longer to form the secondary structure of RNA. On the other hand, to prepare Raf-1 RBD, human Raf-1 RBD (amino acid residues 51-131) was expressed as a GST (glutathione transferase)-fusion protein in E. coli cells and purified from the supernatant of crushed cells by column chromatography. Rat RGL RBD (amino acid residues 632-734) [Koyama et al., 1996] and human B-Raf RBD (amino acid residues 149-226) were also expressed as GST-fusion proteins in E. coli cells and purified in the same manner.
# [3] = Filter binding % (filter binding method, Table 2); details: triplicate average, standard deviation in parentheses
# Description: as §1
# [4] = biological target: T7 RNA polymerase (Escherichia phage T7, UniProt P00573); details: for misincorporation: 5IyTP +; for 5Iyp (number of nucleotides in transcription product): transcribed with 0.25 mM 5IyTP (+), theoretical number in parentheses
# Description: The reaction composition of T7 transcription may be the same as described in Ohtsuki et al., 2001. Details are as follows: 40 mM Tris-HCl (pH 8.0), 5 mM DTT, 24 mM MgCl2, 2 mM spermidine, 0.01% TritonX-100, 10 mM GMP, 1 mM NTPs, 0-0.25 mM 5IyTP, 0.2 μl/μl template DNA, and 2.5 U/μl T7 RNA polymerase (TaKaRa). After enzymatic reaction at 37° C. for 6 hours, each reaction product was purified by electrophoresis on an 8% polyacrylamide-7M urea gel.
# When T7 transcription reaction is performed in the presence of [α-^32P]ATP or [α-^32P]GTP, a nucleoside 3′-phosphate (Np) 5′-terminal to A or G is labeled with ^32P. Each gel-purified RNA was completely digested into Np by RNase T2 (Sigma). If 5Iy is introduced at residue 84 or 92, the nucleoside 3′-phosphate of 5Iy (5IyTp) is labeled with ^32P via [α-^32P]GTP, while if 5Iy is introduced at residue 87, 5IyTp is labeled via [α-^32P]ATP (FIG. 5, FIG. 6-b). For base composition analysis of 5Iy-containing RNAs, each of the completely digested products was separated by 2D-TLC and determined for each nucleotide content.
# More specifically, to completely digest RNA, 0.75 μl RNase T2 solution (5 units/μl; 100 mM NaOAc pH 4.5, 10% glycerol) was added to 4.25 μl aqueous solution containing the labeled RNA and a 0.25 OD E. coli-derived tRNA mixture (Sigma), followed by overnight enzymatic reaction at 37° C. A part of the reaction solution was spotted onto a 10 cm×10 cm TLC plate (Funacell SF; Funakoshi Co., Ltd., Japan) and developed in two dimensions. Developing solutions for the first and second dimensions are isobutyric acid/ammonia/water (66:1:33 by volume) and 2-propanol/hydrochloric acid/water (70:15:15 by volume), respectively. The developed spots were detected and quantified using a bioimaging analyzer (BAS2500, Fuji Photo Film Co., Ltd., Japan).
# Each value was calculated from the following equation. The theoretical numbers of nucleotides are in parentheses.
# [5] = biological target: B-Raf RBD/Ras interaction (Homo sapiens, UniProt P15056)
# [6] = test system: Ras-induced Raf-1 activation; assay: Ras-induced Raf-1 activation in a cell-free system; assay type: biochemical; details: membrane fraction of Sf9 cells expressing Ras and Raf-1, cytoplasmic fraction of HEK293 cells
# [7] = biological target: T3, Raf-1 RBD/Ras interaction (Homo sapiens, UniProt P04049); assay: Inhibition of Raf-1 RBD/Ras interaction; assay type: biochemical; details: compared with aptamer from N60 pool
# T3 construct: GST (N); made in house; host or cells: E. coli
# Description: In this reference example, with the aim of designing a novel RNA molecule selectively regulating Ras/Raf-1 interaction in cellular signal transduction, RNA aptamers specifically binding to Raf-1 RBD were isolated by in vitro selection techniques. An RNA aptamer obtained from a pool containing random sequences of 60 nucleotides (N60) inhibited Raf-1 RBD/Ras interaction. […] In response to this, the selection technique was partially modified and used for selection on a pool containing newly designed RNA random sequences of 45 nucleotides (N45). The RT-PCR products were each subcloned into TA cloning vector pCR®II-TOPO using a TOPO TA Cloning Kit Dual (Invitrogen), and nucleotide sequences were determined for individual clones using a dRhodamine Terminator Cycle Sequencing Ready Reaction Kit (Applied Biosystems).
# Sequence of T7 RNA polymerase (P00573 whole entry): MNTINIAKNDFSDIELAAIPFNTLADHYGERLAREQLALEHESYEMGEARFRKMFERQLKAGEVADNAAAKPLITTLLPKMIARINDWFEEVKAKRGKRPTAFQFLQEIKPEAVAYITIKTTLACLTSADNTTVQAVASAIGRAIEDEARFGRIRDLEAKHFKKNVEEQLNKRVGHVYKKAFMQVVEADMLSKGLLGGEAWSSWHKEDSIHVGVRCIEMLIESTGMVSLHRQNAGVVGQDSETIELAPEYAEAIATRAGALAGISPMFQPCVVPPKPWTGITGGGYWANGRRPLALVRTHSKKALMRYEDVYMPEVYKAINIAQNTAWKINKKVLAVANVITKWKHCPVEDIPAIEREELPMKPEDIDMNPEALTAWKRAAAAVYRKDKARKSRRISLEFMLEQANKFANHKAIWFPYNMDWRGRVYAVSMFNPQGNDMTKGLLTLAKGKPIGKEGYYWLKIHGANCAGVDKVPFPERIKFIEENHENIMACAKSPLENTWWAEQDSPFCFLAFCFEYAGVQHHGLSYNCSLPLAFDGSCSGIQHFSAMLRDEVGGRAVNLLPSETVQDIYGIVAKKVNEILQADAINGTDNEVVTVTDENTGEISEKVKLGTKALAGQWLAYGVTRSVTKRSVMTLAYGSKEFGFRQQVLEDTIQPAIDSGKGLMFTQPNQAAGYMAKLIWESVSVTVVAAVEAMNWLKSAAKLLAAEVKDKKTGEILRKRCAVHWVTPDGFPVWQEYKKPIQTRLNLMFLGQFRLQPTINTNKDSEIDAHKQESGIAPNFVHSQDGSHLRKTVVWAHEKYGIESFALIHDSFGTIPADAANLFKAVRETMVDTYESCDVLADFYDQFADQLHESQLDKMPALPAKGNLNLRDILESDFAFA
# Sequence of B-Raf RBD/Ras interaction (P15056 149-226): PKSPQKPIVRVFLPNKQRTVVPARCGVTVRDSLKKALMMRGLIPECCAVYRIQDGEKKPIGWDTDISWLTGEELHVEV
molecule,measurement,setting,value
B1,complex formation with GST-RBD (gel shift pattern),[1],1:1 complex
same,Raf-1 RBD binding %,[2],25 (5) %
same,Filter binding %,[3],0.2 (0.1) %
same,misincorporation,[4]; [α-32P]ATP label,0.45%
same,5Iyp (number of nucleotides in transcription product),[4]; [α-32P]ATP label,0.10(0)
same,misincorporation,[4]; [α-32P]GTP label,0.41%
same,5Iyp (number of nucleotides in transcription product),[4]; [α-32P]GTP label,0.09(0)
same,inhibition of B-Raf RBD/Ras interaction,[5],did not inhibit
same,inhibition of Ras-induced Raf-1 activation,[6],strongly inhibited
same,inhibitory capacity against Raf-1 RBD/Ras interaction,[7],higher inhibitory capacity
